Experimental data reported in IntAct's records for PubMed 21673656.

B1: Flagellar motor switch protein FliM (Escherichia coli (strain K12)), P06974 (parent)
chain: MGDSILSQAEIDALLNGDSEVKDEPTASVSGESDIRPYDPNTQRRVVRERLQALEIINERFARHFRMGLFNLLRRSPDITVGAIRIQPYHEFARNLPVPTNLNLIHLKPLRGTGLVVFSPSLVFIAVDNLFGGDGRFPTKVEGREFTHTEQRVINRMLKLALEGYSDAWKAINPLEVEYVRSEMQVKFTNITTSPNDIVVNTPFHVEIGNLTGEFNICLPFSMIEPLRELLVNPPLENSRNEDQNWRDNLVRQVQHSQLELVANFADISLRLSQILKLNPGDVLPIEKPDRIIAHVDGVPVLTSQYGTLNGQYALRIEHLINPILNSLNEEQPK
partner: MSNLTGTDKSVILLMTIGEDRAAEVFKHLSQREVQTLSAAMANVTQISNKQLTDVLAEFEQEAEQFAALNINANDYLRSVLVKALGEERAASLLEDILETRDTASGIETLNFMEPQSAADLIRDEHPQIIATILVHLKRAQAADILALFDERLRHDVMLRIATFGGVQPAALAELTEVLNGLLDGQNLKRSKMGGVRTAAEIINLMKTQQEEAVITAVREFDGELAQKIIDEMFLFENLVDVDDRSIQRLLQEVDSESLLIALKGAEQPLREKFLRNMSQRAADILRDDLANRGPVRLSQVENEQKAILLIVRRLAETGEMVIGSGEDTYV
B2: Flagellar motor switch protein FliG (Escherichia coli (strain K12)), P0ABZ1 (parent)
chain: B1 partner
partner: B1 chain

Variants of: B1
Details: with flig_ecoli fliG

Variant | effect of a mutation on the interaction
MGDSILSQAEIDALLNGDSEVKDEPTASVSGESDIRPYDPNTQRRVVRERLQALEIINERFARHFRMGLFNLLRRSPDITVGAIRIQPYHEFARNLPVPTNLNLIHLKPLRGTGLVVFSPSLVFIAVDNLFGGDGRFPTKVEGREFTHTEQRVINDMLKLALEGYSDAWKAINPLEVEYVRSEMQVKFTNITTSPNDIVVNTPFHVEIGNLTGEFNICLPFSMIEPLRELLVNPPLENSRNEDQNWRDNLVRQVQHSQLELVANFADISLRLSQILKLNPGDVLPIEKPDRIIAHVDGVPVLTSQYGTLNGQYALRIEHLINPILNSLNEEQPK [R156D] | disrupting interaction

Variants of: B1
Details: with flig_ecoli fliG
Remark: another data set of the same source

Variant | effect of a mutation on the interaction
MGDSILSQAEIDALLNGDSEVKDEPTASVSGESDIRPYDPNTQRRVVRERLQALEIINERFARHFRMGLFNLLRRSPDITVGAIRIQPYHEFARNLPVPTNLNLIHLKPLRGTGLVVFSPSLVFIAVDNLFGGDGRFPTKVEGREFTHTEQRDINRMLKLALEGYSDAWKAINPLEVEYVRSEMQVKFTNITTSPNDIVVNTPFHVEIGNLTGEFNICLPFSMIEPLRELLVNPPLENSRNEDQNWRDNLVRQVQHSQLELVANFADISLRLSQILKLNPGDVLPIEKPDRIIAHVDGVPVLTSQYGTLNGQYALRIEHLINPILNSLNEEQPK [V153D] | decreasing interaction

Variants of: B1
Details: with flig_ecoli fliG
Remark: another data set of the same source

Variant | effect of a mutation on the interaction
MGDSILSQAEIDALLNGDSEVKDEPTASVSGESDIRPYDPNTQRRVVRERLQALEIINERFARHFRMGLFNLLRRSPDITVGAIRIQPYHEFARNLPVPTNLNLIHLKPLRGTGLVVFSPSLVFIAVDNLFGGDGRFPTKVEGREFTHTEQRCINRMLKLALEGYSDAWKAINPLEVEYVRSEMQVKFTNITTSPNDIVVNTPFHVEIGNLTGEFNICLPFSMIEPLRELLVNPPLENSRNEDQNWRDNLVRQVQHSQLELVANFADISLRLSQILKLNPGDVLPIEKPDRIIAHVDGVPVLTSQYGTLNGQYALRIEHLINPILNSLNEEQPK [V153C] | increasing interaction

Variants of: B1
Details: with flig_ecoli fliG, P0ABZ1

Variant | effect of a mutation on the interaction
MGDSILSQAEIDALLNGDSEVKDEPTASVSGESDIRPYDPNTQRRVVRERLQALEIINERFARHFRMGLFNLLRRSPDITVGAIRIQPYHEFARNLPVPTNLNLIHLKPLRGTGLVVFSPSLVFIAVDNLCGGDGRFPTKVEGREFTHTEQRVINRMLKLALEGYSDAWKAINPLEVEYVRSEMQVKFTNITTSPNDIVVNTPFHVEIGNLTGEFNICLPFSMIEPLRELLVNPPLENSRNEDQNWRDNLVRQVQHSQLELVANFADISLRLSQILKLNPGDVLPIEKPDRIIAHVDGVPVLTSQYGTLNGQYALRIEHLINPILNSLNEEQPK [F131C] | increasing interaction

Variants of: B1
Details: with flig_ecoli fliG
Remark: another data set of the same source

Variant | effect of a mutation on the interaction
MGDSILSQAEIDALLNGDSEVKDEPTASVSGESDIRPYDPNTQRRVVRERLQALEIINERFARHFRMGLFNLLRRSPDITVGAIRIQPYHEFARNLPVPTNLNLIHLKPLRGTGLVVFSPSLVFIAVDNLDGGDGRFPTKVEGREFTHTEQRVINRMLKLALEGYSDAWKAINPLEVEYVRSEMQVKFTNITTSPNDIVVNTPFHVEIGNLTGEFNICLPFSMIEPLRELLVNPPLENSRNEDQNWRDNLVRQVQHSQLELVANFADISLRLSQILKLNPGDVLPIEKPDRIIAHVDGVPVLTSQYGTLNGQYALRIEHLINPILNSLNEEQPK [F131D] | disrupting interaction

Variants of: B1
Details: with flig_ecoli fliG
Remark: another data set of the same source

Variant | effect of a mutation on the interaction
MGDSILSQAEIDALLNGDSEVKDEPTASVSGESDIRPYDPNTQRRVVRERLQALEIINERFARHFRMGLFNLLRRSPDITVGAIRIQPYHEFARNLPVPTNLNLIHLKPLRGTGLVVFSPSLVFIAVDNLFGGDGRFPTKVEGREFTHTEQRVINRMLKEALEGYSDAWKAINPLEVEYVRSEMQVKFTNITTSPNDIVVNTPFHVEIGNLTGEFNICLPFSMIEPLRELLVNPPLENSRNEDQNWRDNLVRQVQHSQLELVANFADISLRLSQILKLNPGDVLPIEKPDRIIAHVDGVPVLTSQYGTLNGQYALRIEHLINPILNSLNEEQPK [L160E] | decreasing interaction

Variants of: B1
Details: with flig_ecoli fliG, P0ABZ1
Remark: another data set of the same source

Variant | effect of a mutation on the interaction
MGDSILSQAEIDALLNGDSEVKDEPTASVSGESDIRPYDPNTQRRVVRERLQALEIINERFARHFRMGLFNLLRRSPDITVGAIRIQPYHEFARNLPVPTNLNLIHLKPLRGTGLVVFSPSLVFIAVDNLFGGDGRFPTKVEGREFTHCEQRVINRMLKLALEGYSDAWKAINPLEVEYVRSEMQVKFTNITTSPNDIVVNTPFHVEIGNLTGEFNICLPFSMIEPLRELLVNPPLENSRNEDQNWRDNLVRQVQHSQLELVANFADISLRLSQILKLNPGDVLPIEKPDRIIAHVDGVPVLTSQYGTLNGQYALRIEHLINPILNSLNEEQPK [T149C] | increasing interaction

Variants of: B1
Details: with flig_ecoli fliG
Remark: another data set of the same source

Variant | effect of a mutation on the interaction
MGDSILSQAEIDALLNGDSEVKDEPTASVSGESDIRPYDPNTQRRVVRERLQALEIINERFARHFRMGLFNLLRRSPDITVGAIRIQPYHEFARNLPVPTNLNLIHLKPLRGTGLVVFSPSLVFIAVDNLFGGDGRFPTKVEGREFTHDEQRVINRMLKLALEGYSDAWKAINPLEVEYVRSEMQVKFTNITTSPNDIVVNTPFHVEIGNLTGEFNICLPFSMIEPLRELLVNPPLENSRNEDQNWRDNLVRQVQHSQLELVANFADISLRLSQILKLNPGDVLPIEKPDRIIAHVDGVPVLTSQYGTLNGQYALRIEHLINPILNSLNEEQPK [T149D] | decreasing interaction

Variants of: B1
Details: with flig_ecoli fliG
Remark: another data set of the same source

Variant | effect of a mutation on the interaction
MGDSILSQAEIDALLNGDSEVKDEPTASVSGESDIRPYDPNTQRRVVRERLQALEIINERFARHFRMGLFNLLRRSPDITVGAIRIQPYHEFARNLPVPTNLNLIHLKPLRGTGLVVFSPSLVFIAVDNLFGWDGRFPTKVEGREFTHTEQRVINRMLKLALEGYSDAWKAINPLEVEYVRSEMQVKFTNITTSPNDIVVNTPFHVEIGNLTGEFNICLPFSMIEPLRELLVNPPLENSRNEDQNWRDNLVRQVQHSQLELVANFADISLRLSQILKLNPGDVLPIEKPDRIIAHVDGVPVLTSQYGTLNGQYALRIEHLINPILNSLNEEQPK [G133W] | disrupting interaction

Variants of: B2
Details: with flim_ecoli fliM, P06974

Variant | effect of a mutation on the interaction
MSNLTGTDKSVILLMTIGEDRAAEVFKHLSQREVQTLSAAMANVTQISNKQLTDVLAEFEQEAEQFAALNINANDYLRSVLVKALGEERAASLLEDILETRDTASGIETLNFMEPQSAADLIRDEHPQCIATILVHLKRAQAADILALFDERLRHDVMLRIATFGGVQPAALAELTEVLNGLLDGQNLKRSKMGGVRTAAEIINLMKTQQEEAVITAVREFDGELAQKIIDEMFLFENLVDVDDRSIQRLLQEVDSESLLIALKGAEQPLREKFLRNMSQRAADILRDDLANRGPVRLSQVENEQKAILLIVRRLAETGEMVIGSGEDTYV [I129C] | increasing interaction

Variants of: B2
Details: with flim_ecoli fliM

Variant | effect of a mutation on the interaction
MSNLTGTDKSVILLMTIGEDRAAEVFKHLSQREVQTLSAAMANVTQISNKQLTDVLAEFEQEAEQFAALNINANDYLRSVLVKALGEERAASLLEDILETRDTASGIETLNFMEPQSAADLIRDEHPQIIATILVHLKRAQAADILALFDERLRHDVMLRIATFGGVQPAALAELTEVLNGLLDGQNLKRSKMGGVRTAAEIINLMKTQQEEAVITAVREFDGEWAQKIIDEMFLFENLVDVDDRSIQRLLQEVDSESLLIALKGAEQPLREKFLRNMSQRAADILRDDLANRGPVRLSQVENEQKAILLIVRRLAETGEMVIGSGEDTYV [L225W] | disrupting interaction

Variants of: B2
Details: with flim_ecoli fliM
Remark: another data set of the same source

Variant | effect of a mutation on the interaction
MSNLTGTDKSVILLMTIGEDRAAEVFKHLSQREVQTLSAAMANVTQISNKQLTDVLAEFEQEAEQFAALNINANDYLRSVLVKALGEERAASLLEDILETRDTASGIETLNFMEPQSAADLIRDEHPQIIATILVHLKRAQAADILALFDERLRHDVMLRIATFGGVQPAALAELTEVLNGLLDGQNLKRSKMGGVRTAAEIINLMKTQQEEAVITAVREFDGECAQKIIDEMFLFENLVDVDDRSIQRLLQEVDSESLLIALKGAEQPLREKFLRNMSQRAADILRDDLANRGPVRLSQVENEQKAILLIVRRLAETGEMVIGSGEDTYV [L225C] | increasing interaction

Variants of: B2
Details: with flim_ecoli fliM
Remark: another data set of the same source

Variant | effect of a mutation on the interaction
MSNLTGTDKSVILLMTIGEDRAAEVFKHLSQREVQTLSAAMANVTQISNKQLTDVLAEFEQEAEQFAALNINANDYLRSVLVKALGEERAASLLEDILETRDTASGIETLNFMEPQSAADLIRDEHPQIIATILVHLKRAQAADILALFDERLRHDVMLRIATFGGVQPAALAELTEVLNGLLDGQNLKRSKMGGVRTAAEWINLMKTQQEEAVITAVREFDGELAQKIIDEMFLFENLVDVDDRSIQRLLQEVDSESLLIALKGAEQPLREKFLRNMSQRAADILRDDLANRGPVRLSQVENEQKAILLIVRRLAETGEMVIGSGEDTYV [I202W] | disrupting interaction

Variants of: B2
Details: with flim_ecoli fliM, P06974
Remark: another data set of the same source

Variant | effect of a mutation on the interaction
MSNLTGTDKSVILLMTIGEDRAAEVFKHLSQREVQTLSAAMANVTQISNKQLTDVLAEFEQEAEQFAALNINANDYLRSVLVKALGEERAASLLEDILETRDTASGIETLNFMEPQSAADLIRDEHPQIIATILVHLKRAQAADILALFDERLRHDVMLRIATFGGVQPAALAELTEVLNGLLDGQNLKRSKMGGVRTAAEIINLCKTQQEEAVITAVREFDGELAQKIIDEMFLFENLVDVDDRSIQRLLQEVDSESLLIALKGAEQPLREKFLRNMSQRAADILRDDLANRGPVRLSQVENEQKAILLIVRRLAETGEMVIGSGEDTYV [M206C] | increasing interaction
